Test results taken from patent publication US7906705B2.

B1: melon UGPase (UDP glucose pyrophosphorylase), SEQ ID NO: 35 (Cucumis melo) (protein)
chain: MASAATLSPADTEKLSKLKASVSGLTQISENEKSGFINLVSRYLSGEAQHVEWSKIQTPTDEVVVPYDSLAPVPNDPAETKKLLDKLVVLKLNGGLGTTMGCTGPKSVIEVRNGLTFLDLIVIQIENLNSKYGCNVPLLLMNSFNTHDDTQKIIEKYKGSNVDIHTFNQSQYPRLVAEDYLPLPSKGRTDKDGWYPPGHGDVFPSLKNSGKLDALIAQGKEYVFVANSDNLGAVVDLQILNHLIQNKNEYCMEVTPKTLADVKGGTLISYEGKVQLLEIAQVPDEHVNEFKSIQKFKIFNTNNLWVNLKAIKRLVEANALKMEIIPNPKEVDGIKVLQLETAAGAAIRFFDHAIGINVPRSRFLPVKATSDLLLVQSDLYTLVDGFVLRNKARKDPSNPSIELGPEFKKVGNFLSRFKSIPSIIELDSLKVVGDVSFGAGVVLKGKVTISAKPGTKLAVPDNAVIANKEINGPEDF
B2: melon UGGPase (UDP-Gal/Glc pyrophosphorylase), SEQ ID NO: 33 (Cucumis melo) (protein)
chain: MASSLDSAALTLSNLSINGDFASSLPNLQKNLHLLSPQQVELAKILLELGQSHLFEHWAEPGVDDNEKKAFFDQVARLNSSYPGGLASYIKTARGLLADSKEGKNPFDGFTPSVPTGEVLTFGDDSFVSFEDRGVREARKAAFVLVAGGLGERLGYNGIKVALPAETTTGTCFLQSYIEYVLALREASNRLAGESETEIPFVIMTSDDTHTRTVELLESNSYFGMKPSQVKLLKQEKVACLDDNEARLAVDPHNKYRIQTKPHGHGDVHALLYSSGLLKNWHNAGLRWVLFFQDTNGLLFKAIPASLGVSATREYHVNSLAVPRKAKEAIGGITRLTHTDGRSMVINVEYNQLDPLLRATGFPDGDVNNETGYSPFPGNINQLILELGSYIEELSKTQGAIKEFVNPKYKDATKTSFKSSTRLECMMQDYPKTLPPSARVGFTVMDTWVAYAPVKNNPEDAAKVPKGNPYHSATSGEMAIYRANSLVLRKAGVKVADPVEQVFNGQEVEVWPRITWKPKWGLTFSEIKSKINGNCSISPRSTLVIKGKNVYLKDLSLDGTLIVNADEDAEVKVEGSVHNKGWTLEPVDYKDTSVPEEIRIRGFRINKIEQEERN

How the values were obtained:
[1] = substrate: O=P(O)(O)O[C@H]1O[C@H](CO)[C@@H](O)[C@H](O)[C@H]1O; assay: purified protein, by the assay type; conditions: other: UDP sugar synthesis direction, 2.5 mM UTP, substrate 0 to 5 mM, pH 7.5, 30° C.
[2] = substrate: O=P(O)(O)O[C@H]1O[C@H](CO)[C@H](O)[C@H](O)[C@H]1O; assay: purified protein, by the assay type; conditions: other: UDP sugar synthesis direction, 2.5 mM UTP, substrate 0 to 5 mM, pH 7.5, 30° C., E. coli expressed, partially purified
[3] = E. coli expressed, partially purified

Row | Protein | Km ([1]; ND = Not detected) [µM] | Vmax ([1]; ND = Not detected) [μmol mg protein^−1min^−1] | Km [2] [µM] | Vmax [2] [μmol mg protein^−1min^−1] | Km [1, 3] [µM] | Vmax [1, 3] [μmol mg protein^−1min^−1]
1 | B1 | 240 | 238 |  |  |  | 
2 | B2 |  |  | 430 | 714 | 270 | 222
